Earlier results on two substances are cited in paper PMC7843923.

Usually Kd stands for the constant that tells how readily two partners part at equilibrium.

One data set addresses Latrophilin3 (UniProt Q9HAR2).
A further data set has as its target Unc5D (UniProt Q6UXZ4).
Sequence of UniProt Q6UXZ4 (Q6UXZ4 33-379): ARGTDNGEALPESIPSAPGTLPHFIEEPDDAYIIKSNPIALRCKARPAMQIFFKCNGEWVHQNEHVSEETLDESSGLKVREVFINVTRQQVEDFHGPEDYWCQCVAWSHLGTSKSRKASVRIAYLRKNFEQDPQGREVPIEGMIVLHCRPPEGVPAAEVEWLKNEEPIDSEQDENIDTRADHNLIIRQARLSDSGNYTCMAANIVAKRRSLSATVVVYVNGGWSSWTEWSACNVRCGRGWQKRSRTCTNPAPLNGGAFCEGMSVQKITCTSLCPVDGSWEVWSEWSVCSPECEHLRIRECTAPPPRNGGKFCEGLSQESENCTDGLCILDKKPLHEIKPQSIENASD

Sequence of UniProt Q9HAR2 (Q9HAR2 20-862): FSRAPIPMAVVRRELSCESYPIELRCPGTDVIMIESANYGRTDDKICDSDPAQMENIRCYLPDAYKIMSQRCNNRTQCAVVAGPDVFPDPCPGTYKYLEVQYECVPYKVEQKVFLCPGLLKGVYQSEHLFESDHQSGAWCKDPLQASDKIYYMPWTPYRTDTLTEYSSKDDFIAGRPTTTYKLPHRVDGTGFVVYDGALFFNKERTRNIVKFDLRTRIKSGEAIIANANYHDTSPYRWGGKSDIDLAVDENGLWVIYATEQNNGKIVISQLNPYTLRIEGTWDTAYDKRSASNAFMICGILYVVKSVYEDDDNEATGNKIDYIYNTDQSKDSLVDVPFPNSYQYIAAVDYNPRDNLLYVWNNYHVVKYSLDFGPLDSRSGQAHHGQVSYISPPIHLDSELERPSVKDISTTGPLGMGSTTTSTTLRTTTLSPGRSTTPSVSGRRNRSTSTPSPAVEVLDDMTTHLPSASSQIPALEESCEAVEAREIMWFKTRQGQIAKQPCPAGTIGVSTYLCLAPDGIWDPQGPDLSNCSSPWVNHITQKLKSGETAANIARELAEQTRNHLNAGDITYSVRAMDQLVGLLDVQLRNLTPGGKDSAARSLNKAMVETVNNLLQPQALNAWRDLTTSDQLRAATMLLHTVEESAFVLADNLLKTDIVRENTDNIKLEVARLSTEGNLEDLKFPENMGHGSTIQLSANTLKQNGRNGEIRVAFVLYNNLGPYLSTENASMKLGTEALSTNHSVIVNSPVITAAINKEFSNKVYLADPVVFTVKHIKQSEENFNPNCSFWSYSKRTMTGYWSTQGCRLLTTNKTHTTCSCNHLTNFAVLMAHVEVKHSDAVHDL

On to FLRT (from UniProt Q9NZU0), for which the Kd with Latrophilin3 was 40 nM.
Take FLRT2 (from UniProt O43155): the Kd with Unc5D is 310 nM.
